Experimental data taken from patent US20190010233A1.
“And” between values parts separate entries of the source, which are not always exact repeats. Equal values may be shown once.

How the values were obtained:
[1] = biological target: cyno PD-L1^ECD-hFc protein (cyno) (UniProt G7PSE7); assay: ELISA, 10 nM mAb
[2] = biological target: human PD-L1^ECD-hFc protein (human) (UniProt Q9NZQ7); assay: ELISA, 10 nM mAb
[3] = biological target: cyno PD-L1^ECD-hFc protein (cyno) (UniProt G7PSE7); assay: ELISA, 30 nM mAb
[4] = biological target: human PD-L1^ECD-hFc protein (human) (UniProt Q9NZQ7); assay: ELISA, 30 nM mAb
[5] = biological target: cyno PD-L1^ECD-hFc protein (cyno) (UniProt G7PSE7); assay: ELISA, 0.1 nM mAb
[6] = biological target: human PD-L1^ECD-hFc protein (human) (UniProt Q9NZQ7); assay: ELISA, 0.1 nM mAb
[7] = biological target: cyno PD-L1^ECD-hFc protein (cyno) (UniProt G7PSE7); assay: ELISA, 0.041 nM mAb
[8] = biological target: human PD-L1^ECD-hFc protein (human) (UniProt Q9NZQ7); assay: ELISA, 0.041 nM mAb
[9] = biological target: cyno PD-L1^ECD-hFc protein (cyno) (UniProt G7PSE7); assay: ELISA, 0.370 nM mAb
[10] = biological target: human PD-L1^ECD-hFc protein (human) (UniProt Q9NZQ7); assay: ELISA, 0.370 nM mAb
[11] = biological target: cyno PD-L1^ECD-hFc protein (cyno) (UniProt G7PSE7); assay: ELISA, 0.001 nM mAb
[12] = biological target: human PD-L1^ECD-hFc protein (human) (UniProt Q9NZQ7); assay: ELISA, 0.001 nM mAb
[13] = biological target: cyno PD-L1^ECD-hFc protein (cyno) (UniProt G7PSE7); assay: ELISA, 0.003 nM mAb
[14] = biological target: human PD-L1^ECD-hFc protein (human) (UniProt Q9NZQ7); assay: ELISA, 0.003 nM mAb
[15] = biological target: cyno PD-L1^ECD-hFc protein (cyno) (UniProt G7PSE7); assay: ELISA, 0.0003 nM mAb
[16] = biological target: human PD-L1^ECD-hFc protein (human) (UniProt Q9NZQ7); assay: ELISA, 0.0003 nM mAb
[17] = biological target: full length human PD-L1 on cells (human) (UniProt Q9NZQ7); assay: FACS CHOK1-hPD-L1, 3 nM mAb
[18] = biological target: full length cyno PD-L1 on cells (cyno) (UniProt G7PSE7); assay: FACS CHO-K1-cPD-L1, 1 nM mAb
[19] = biological target: full length human PD-L1 on cells (human) (UniProt Q9NZQ7); assay: FACS CHOK1-hPD-L1, 30 nM mAb
[20] = biological target: full length cyno PD-L1 on cells (cyno) (UniProt G7PSE7); assay: FACS CHO-K1-cPD-L1, 3 nM mAb
[21] = biological target: full length human PD-L1 on cells (human) (UniProt Q9NZQ7); assay: FACS CHO-K1-hPD-L1, 10 nM mAb
[22] = biological target: full length cyno PD-L1 on cells (cyno) (UniProt G7PSE7); assay: FACS CHO-K1-cPD-L1, 10 nM mAb
[23] = biological target: full length human PD-L1 on cells (human) (UniProt Q9NZQ7); assay: FACS CHOK1-hPD-L1, 0.3 nM mAb
[24] = biological target: full length cyno PD-L1 on cells (cyno) (UniProt G7PSE7); assay: FACS CHO-K1-cPD-L1, 0.1 nM mAb
[25] = biological target: full length human PD-L1 on cells (human) (UniProt Q9NZQ7); assay: FACS CHOK1-hPD-L1, 0.03 nM mAb
[26] = biological target: full length cyno PD-L1 on cells (cyno) (UniProt G7PSE7); assay: FACS CHO-K1-cPD-L1, 0.3 nM mAb
[27] = biological target: full length cyno PD-L1 on cells (cyno) (UniProt G7PSE7); assay: FACS CHO-K1-cPD-L1, 300 nM mAb
[28] = biological target: full length cyno PD-L1 on cells (cyno) (UniProt G7PSE7); assay: FACS CHO-K1-cPD-L1, 0.14 nM mAb
[29] = biological target: full length cyno PD-L1 on cells (cyno) (UniProt G7PSE7); assay: FACS CHO-K1-cPD-L1, 0.41 nM mAb
[30] = biological target: full length cyno PD-L1 on cells (cyno) (UniProt G7PSE7); assay: FACS CHO-K1-cPD-L1, 3.70 nM mAb
[31] = biological target: full length cyno PD-L1 on cells (cyno) (UniProt G7PSE7); assay: FACS CHO-K1-cPD-L1, 0.03 nM mAb
[32] = biological target: full length cyno PD-L1 on cells (cyno) (UniProt G7PSE7); assay: FACS CHO-K1-cPD-L1, 0.001 nM mAb
[33] = biological target: full length cyno PD-L1 on cells (cyno) (UniProt G7PSE7); assay: FACS CHO-K1-cPD-L1, 33.33 nM mAb
[34] = biological target: full length cyno PD-L1 on cells (cyno) (UniProt G7PSE7); assay: FACS CHO-K1-cPD-L1, 100.00 nM mAb

Sequence of human PD-L1^ECD-hFc protein (human) (Q9NZQ7 19-239): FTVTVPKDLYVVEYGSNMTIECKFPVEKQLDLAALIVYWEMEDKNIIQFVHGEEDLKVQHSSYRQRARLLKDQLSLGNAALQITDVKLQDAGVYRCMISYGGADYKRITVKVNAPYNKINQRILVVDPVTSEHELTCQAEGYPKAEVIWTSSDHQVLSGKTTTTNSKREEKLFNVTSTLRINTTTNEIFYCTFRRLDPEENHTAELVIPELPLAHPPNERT
Sequence of full length human PD-L1 on cells (human) (Q9NZQ7 19-290 limits assumed): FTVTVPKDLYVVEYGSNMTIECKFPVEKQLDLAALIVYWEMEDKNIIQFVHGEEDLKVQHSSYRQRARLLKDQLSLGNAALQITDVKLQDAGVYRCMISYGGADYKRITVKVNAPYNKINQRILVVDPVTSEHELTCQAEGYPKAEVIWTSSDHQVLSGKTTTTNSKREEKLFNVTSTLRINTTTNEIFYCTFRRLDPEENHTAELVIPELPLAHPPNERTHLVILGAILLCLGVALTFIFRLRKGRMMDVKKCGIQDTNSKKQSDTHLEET
Sequence of full length cyno PD-L1 on cells (cyno) (G7PSE7 entry or part of it limits assumed): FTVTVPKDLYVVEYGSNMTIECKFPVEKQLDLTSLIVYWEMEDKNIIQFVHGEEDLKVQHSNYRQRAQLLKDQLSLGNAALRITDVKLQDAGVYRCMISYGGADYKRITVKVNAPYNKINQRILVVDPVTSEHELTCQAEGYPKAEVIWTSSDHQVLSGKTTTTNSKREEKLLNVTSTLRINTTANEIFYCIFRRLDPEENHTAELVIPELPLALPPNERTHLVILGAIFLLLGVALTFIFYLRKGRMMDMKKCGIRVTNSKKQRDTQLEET
Sequence of cyno PD-L1^ECD-hFc protein (cyno) (G7PSE7 entry or part of it limits assumed): as the sequence (Q9NZQ7 19-239) above, with A33T, A34S, S62N, R68Q, Q82R, F173L, T185A, T192I, H215L counted along it

Substance: IgG control (human IgG) (antibody)
- OD450 nm [1]: 0.15
- OD450 nm [2]: 0.225
- OD450 nm [3]: 0.12
- OD450 nm [4]: 0.315
- OD450 nm [5]: 0.0967
- OD450 nm [6]: 0.149
- OD450 nm [7]: 0.11
- OD450 nm [8]: 0.11
- OD450 nm [9]: 0.12
- OD450 nm [10]: 0.12
- OD450 nm [11]: 0.0972
- OD450 nm [12]: 0.149
- OD450 nm [13]: 0.302
- OD450 nm [14]: 0.298
- OD450 nm [15]: 0.273
- OD450 nm [16]: 0.338
- Mean fluorescence intensity [17]: 3.56
- Mean fluorescence intensity [18]: 1.83
- Mean fluorescence intensity [19]: 5.73
- Mean fluorescence intensity [20]: 3.91
- Mean fluorescence intensity [21]: 2.73
- Mean fluorescence intensity [22]: 1.95
- Mean fluorescence intensity [23]: 3.16
- Mean fluorescence intensity [24]: 2.2
- Mean fluorescence intensity [25]: 2.92
- Mean fluorescence intensity [26]: 3.73
- Mean fluorescence intensity [27]: 15.6
- Mean fluorescence intensity [28]: 2.74
- Mean fluorescence intensity [29]: 2.69
- Mean fluorescence intensity [30]: 2.73
- Mean fluorescence intensity [31]: 3.79
- Mean fluorescence intensity [32]: 1.9
- Mean fluorescence intensity [33]: 2.94
- Mean fluorescence intensity [34]: 3.33 and 8.11
